In patent publication US20160333098A1 (published 2016):

How the values were obtained:
[1] = biological target: cell lines MCF-7, DU-145 and ME-180 carrying both IGF-1R and EGP-1; test: flow cytometry (FACScan), MCF-7 cells; control
[2] = biological target: EGP-1 expressed on cancer cell lines (MCF-7, DU-145, ME-180) (UniProt P09758); test: flow cytometry (FACScan), ME-180 cells
[3] = biological target: EGP-1 expressed on cancer cell lines (MCF-7, DU-145, ME-180) (UniProt P09758); test: flow cytometry (FACScan), MCF-7 cells
[4] = biological target: EGP-1 expressed on cancer cell lines (MCF-7, DU-145, ME-180) (UniProt P09758); test: flow cytometry (FACScan), DU145 cells
[5] = biological target: recombinant human IGF-1R (rhIGF-1R), immobilized on plates or polystyrene beads (human) (UniProt P08069); test: labeled antibody on rhIGF-1R-coated beads; competitor: unlabeled R1
[6] = biological target: recombinant human IGF-1R (rhIGF-1R), immobilized on plates or polystyrene beads (human) (UniProt P08069); test: labeled antibody on rhIGF-1R-coated beads; competitor: unlabeled cR1
[7] = biological target: recombinant human IGF-1R (rhIGF-1R), immobilized on plates or polystyrene beads (human) (UniProt P08069); test: labeled antibody on rhIGF-1R-coated beads; competitor: unlabeled αIR-3
[8] = biological target: recombinant human IGF-1R (rhIGF-1R), immobilized on plates or polystyrene beads (human) (UniProt P08069); test: labeled antibody on rhIGF-1R-coated beads; competitor: unlabeled 17-69
[9] = biological target: recombinant human IGF-1R (rhIGF-1R), immobilized on plates or polystyrene beads (human) (UniProt P08069); test: labeled antibody on rhIGF-1R-coated beads; competitor: unlabeled hR1
[10] = biological target: recombinant human IGF-1R (rhIGF-1R), immobilized on plates or polystyrene beads (human) (UniProt P08069); test: labeled antibody on rhIGF-1R-coated beads; competitor: unlabeled 24-60
[11] = biological target: recombinant human IGF-1R (rhIGF-1R), immobilized on plates or polystyrene beads (human) (UniProt P08069); test: labeled antibody on rhIGF-1R-coated beads; competitor: unlabeled 1-2
[12] = biological target: recombinant human IGF-1R (rhIGF-1R), immobilized on plates or polystyrene beads (human) (UniProt P08069); test: labeled antibody on rhIGF-1R-coated beads; competitor: unlabeled MAB391
[13] = biological target: recombinant human IGF-1R (rhIGF-1R), immobilized on plates or polystyrene beads (human) (UniProt P08069); test: labeled antibody on rhIGF-1R-coated beads; competitor: unlabeled 24-31
[14] = biological target: recombinant human IGF-1R (rhIGF-1R), immobilized on plates or polystyrene beads (human) (UniProt P08069); test: labeled antibody on rhIGF-1R-coated beads; competitor: unlabeled 24-57
[15] = biological target: recombinant human IGF-1R (rhIGF-1R), immobilized on plates or polystyrene beads (human) (UniProt P08069); test: labeled antibody on rhIGF-1R-coated beads; competitor: unlabeled 1H7
[16] = biological target: recombinant human IGF-1R (rhIGF-1R), immobilized on plates or polystyrene beads (human) (UniProt P08069); test: labeled antibody on rhIGF-1R-coated beads; competitor: unlabeled 2C8
[17] = biological target: recombinant human IGF-1R (rhIGF-1R), immobilized on plates or polystyrene beads (human) (UniProt P08069); test: labeled antibody on rhIGF-1R-coated beads; competitor: unlabeled 3B7
[18] = biological target: cell lines MCF-7, DU-145 and ME-180 carrying both IGF-1R and EGP-1; test: flow cytometry (FACScan), MCF-7 cells; structural control
[19] = biological target: IGF-1R expressed on cancer cell lines (MCF-7L, MCF-7, CaPan1, DU-145, ME-180, Hep G2, HT-29, LNCaP) (human) (UniProt P08069); test: 125I-IGF-1 binding to MCF-7L cells in the presence of 1000 ng/mL antibody
[20] = biological target: IGF-1R expressed on cancer cell lines (MCF-7L, MCF-7, CaPan1, DU-145, ME-180, Hep G2, HT-29, LNCaP) (human) (UniProt P08069); test: 125I-IGF-1 binding to MCF-7L cells in the presence of 10 ng/mL antibody
[21] = biological target: IGF-1R expressed on cancer cell lines (MCF-7L, MCF-7, CaPan1, DU-145, ME-180, Hep G2, HT-29, LNCaP) (human) (UniProt P08069); test: 125I-IGF-1 binding to MCF-7L cells in the presence of 100 ng/mL antibody
[22] = biological target: IGF-1R expressed on cancer cell lines (MCF-7L, MCF-7, CaPan1, DU-145, ME-180, Hep G2, HT-29, LNCaP) (human) (UniProt P08069); test: 125I-IGF-1 binding to MCF-7L cells, 0 ng/mL antibody (reference)
[23] = biological target: T1, recombinant human IGF-1R (rhIGF-1R), immobilized on plates or polystyrene beads (human, UniProt P08069 31-935); test: labeled antibody on rhIGF-1R-coated beads; competitor: unlabeled 17-69
T1 construct: also called immobilized recombinant human IGF-1R; IGF-1R-coated beads

[24] = biological target: T1, recombinant human IGF-1R (rhIGF-1R), …; test: labeled antibody on rhIGF-1R-coated beads; competitor: unlabeled R1
[25] = biological target: T1, recombinant human IGF-1R (rhIGF-1R), …; test: labeled antibody on rhIGF-1R-coated beads; competitor: unlabeled 24-57
[26] = biological target: T2, recombinant human insulin receptor (rhIR), immobilized (human, UniProt P06213-2 28-944, limits assumed); test: ELISA on immobilized receptor
[27] = biological target: T1, recombinant human IGF-1R (rhIGF-1R), …; test: ELISA on immobilized rhIGF-1R (cR1 of clones 709.2D2 and 710.2G2, the same value for each)
[28] = biological target: T1, recombinant human IGF-1R (rhIGF-1R), …; test: labeled antibody on rhIGF-1R-coated beads; competitor: unlabeled MAB391
[29] = biological target: T1, recombinant human IGF-1R (rhIGF-1R), …; test: labeled antibody on rhIGF-1R-coated beads; competitor: unlabeled 1H7
[30] = biological target: T1, recombinant human IGF-1R (rhIGF-1R), …; test: labeled antibody on rhIGF-1R-coated beads; competitor: unlabeled 24-60
[31] = biological target: T1, recombinant human IGF-1R (rhIGF-1R), …; test: labeled antibody on rhIGF-1R-coated beads; competitor: unlabeled 3B7
[32] = biological target: T1, recombinant human IGF-1R (rhIGF-1R), …; test: labeled antibody on rhIGF-1R-coated beads; competitor: unlabeled 2C8
[33] = biological target: T1, recombinant human IGF-1R (rhIGF-1R), …; test: labeled antibody on rhIGF-1R-coated beads; competitor: unlabeled hR1
[34] = biological target: T1, recombinant human IGF-1R (rhIGF-1R), …; test: labeled antibody on rhIGF-1R-coated beads; competitor: unlabeled 1-2
[35] = biological target: T1, recombinant human IGF-1R (rhIGF-1R), …; test: labeled antibody on rhIGF-1R-coated beads; competitor: unlabeled cR1
[36] = biological target: T1, recombinant human IGF-1R (rhIGF-1R), …; test: labeled antibody on rhIGF-1R-coated beads; competitor: unlabeled αIR-3
[37] = biological target: T1, recombinant human IGF-1R (rhIGF-1R), …; test: labeled antibody on rhIGF-1R-coated beads; competitor: unlabeled 24-31
[38] = biological target: T2, recombinant human insulin receptor …; test: hybridoma screening; method not described

Sequence of EGP-1 expressed on cancer cell lines (MCF-7, DU-145, ME-180) (P09758 27-323): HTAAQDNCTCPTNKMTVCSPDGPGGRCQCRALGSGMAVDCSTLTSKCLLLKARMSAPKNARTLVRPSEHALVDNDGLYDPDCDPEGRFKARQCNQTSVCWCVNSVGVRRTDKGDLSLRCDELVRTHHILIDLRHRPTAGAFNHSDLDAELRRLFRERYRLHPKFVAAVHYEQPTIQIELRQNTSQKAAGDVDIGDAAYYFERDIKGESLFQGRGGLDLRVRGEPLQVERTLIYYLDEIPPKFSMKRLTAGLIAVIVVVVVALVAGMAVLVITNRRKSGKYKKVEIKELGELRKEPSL
T2 sequence (P06213 other isoform, or with tags, fused parts or gaps limits assumed): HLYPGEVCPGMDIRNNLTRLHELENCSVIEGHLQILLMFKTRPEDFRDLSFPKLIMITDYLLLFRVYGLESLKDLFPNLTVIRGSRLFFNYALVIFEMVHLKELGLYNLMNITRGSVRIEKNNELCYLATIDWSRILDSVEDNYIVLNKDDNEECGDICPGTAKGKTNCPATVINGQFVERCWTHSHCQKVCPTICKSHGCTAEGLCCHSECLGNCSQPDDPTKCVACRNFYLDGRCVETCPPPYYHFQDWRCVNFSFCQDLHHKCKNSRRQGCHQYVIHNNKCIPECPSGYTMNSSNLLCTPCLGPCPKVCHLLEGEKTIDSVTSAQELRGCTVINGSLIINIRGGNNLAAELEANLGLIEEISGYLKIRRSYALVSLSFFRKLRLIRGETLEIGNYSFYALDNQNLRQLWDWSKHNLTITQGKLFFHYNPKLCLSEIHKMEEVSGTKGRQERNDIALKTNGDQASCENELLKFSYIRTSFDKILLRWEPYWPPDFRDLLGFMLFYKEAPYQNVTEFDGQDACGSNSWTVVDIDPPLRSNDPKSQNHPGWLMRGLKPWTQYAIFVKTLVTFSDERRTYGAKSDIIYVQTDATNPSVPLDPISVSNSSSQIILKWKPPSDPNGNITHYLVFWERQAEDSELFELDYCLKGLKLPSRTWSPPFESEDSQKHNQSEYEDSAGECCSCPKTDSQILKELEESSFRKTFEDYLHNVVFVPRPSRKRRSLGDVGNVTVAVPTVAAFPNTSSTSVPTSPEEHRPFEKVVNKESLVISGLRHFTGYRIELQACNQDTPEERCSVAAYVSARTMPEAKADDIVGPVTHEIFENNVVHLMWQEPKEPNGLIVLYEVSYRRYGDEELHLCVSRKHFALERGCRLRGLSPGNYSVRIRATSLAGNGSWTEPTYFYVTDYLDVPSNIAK

“human IgG (control in Table 5) (antibody)” was tested, and the % Positive [1] was 2.34% and the MFI [1] was 1.84.

“Hex-hRS7, monospecific hexavalent DNL construct (hRS7 IgG-AD2 with hRS7 Fab-DDD2) (antibody)” gave a % Positive [2] of 100%, an MFI [2] of 59.6 and a % Positive [3] of 99.9%. It also gave an MFI [3] of 35.7, a % Positive [4] of 93.7% and an MFI [4] of 17.

anti-IGF-1R antibody 24-60 was tested, and the % binding [5] was 0%, the % binding [6] was 0% and the % binding [7] was 21%. It also gave a % binding [8] of 82%, a % binding [9] of 0% and a % binding [10] of 0%. The % binding [11] was 100%, the % binding [12] was 0% and the % binding [13] was 18%. For the same molecule, the % binding [14] was 88%, the % binding [15] was 100% and the % binding [16] was 88%. It also gave a % binding [17] of 79%.

Work on anti-IGF-1R antibody αIR-3 yielded a % binding [5] of 86%, a % binding [6] of 97% and a % binding [7] of 0%. The % binding [8] was 89%, the % binding [9] was 107% and the % binding [10] was 0%. The % binding [11] was 95%, the % binding [12] was 0% and the % binding [13] was 52%. The % binding [14] was 87%, the % binding [15] was 115% and the % binding [16] was 97%. For the same molecule, the % binding [17] was 76%.

For “DNL construct 22-20 (hLL2 IgG-AD2 with hA20 Fab-DDD2) (bispecific antibody)”, the % Positive [18] was 3.1% and the MFI [18] was 2.11.

hRS7, humanized anti-EGP-1 antibody gave a % Positive [2] of 100%, an MFI [2] of 35.5 and a % Positive [3] of 99.2%. For the same molecule, the MFI [3] was 21.4, the % Positive [4] was 82.8% and the MFI [4] was 10.6.

With “MAB391, commercially available mouse anti-IGF-1R monoclonal antibody” the % binding [5] was 40%, the % binding of 125I-IGF-1 [19] was 38% and the % binding [12] was 0%. For the same molecule, the % binding of 125I-IGF-1 [20] was 95%, the % binding of 125I-IGF-1 [21] was 54% and the % binding of 125I-IGF-1 [22] was 100%.

B1: chimeric R1 (cR1) (antibody, V domains shown)
VH: EVKLVESGGGLVQPGGSLKLSCATSGFTFSDYYMYWVRQTPEKRLEWVAYITNYGGSTYYPDTVKGRFTISRDNAKNTLYLQMSRLRSEDTAMYFCARQSNYDYDGWFAYWGQGTTVTVSS
VL: DIVMTQSHKFMSTSVGDRVSITCKASQEVGTAVAWYQQKPGQSPKLLIYWASTRHTGVPDRFTGSGSGTDFTLTISNVQSEDLADYFCQQYSNYPLTFGAGAKLELKR
notes: R1 variable domains on human constant regions of the pdHL2 vector (cR1pdHL2); also called mouse-human chimeric mAb of R1; clones 709.2D2 and 710.2G2
In the case of B1, the “% binding” value [23] is reported as 100%, the “% binding” value [24] is reported as 0% and the “% binding” value [25] is reported as 100%. The binding result [26] was “no binding”, the Kd [27] was ~0.1 nM and the “% binding” value [28] was 108%. For the same molecule, the “% binding” value [29] was 125%, the “% binding” value [30] was 40% and the “% binding” value [31] was 106%. For the same molecule, the “% binding” value [32] was 100%, the “% binding” value [33] was 0% and the “% binding” value [34] was 100%. For the same molecule, the “% binding” value [35] was 0%, the “% binding” value [36] was 128% and the “% binding” value [37] was 100%.

B2: mouse anti-IGF-1R antibody R1 (ML04R1) (antibody, V domains shown)
VH: EVKLVESGGGLVQPGGSLKLSCATSGFTFSDYYMYWVRQTPEKRLEWVAYITNYGGSTYYPDTVKGRFTISRDNAKNTLYLQMSRLRSEDTAMYFCARQSNYDYDGWFAYWGQGTTVTVSS
VL: DIVMTQSHKFMSTSVGDRVSITCKASQEVGTAVAWYQQKPGQSPKLLIYWASTRHTGVPDRFTGSGSGTDFTLTISNVQSEDLADYFCQQYSNYPLTFGAGAKLELKR
notes: Used unlabeled or tagged with a fluorescent probe (PE); also called murine R1; clone C-11
B2 was tested, and the “% binding” value [23] was 100%, the “% binding” value [24] was 0% and the “% binding” value [25] was 100%. For the same molecule, the “% binding” value [28] was 100%, the “% binding” value [29] was 150% and the “% binding” value [30] was 43%. The “% binding” value [31] was 117%, the “% binding” value [32] was 100% and the “% binding” value [33] was 0%. The “% binding” value [34] was 100%, the “% binding” value [35] was 0% and the “% binding” value [36] was 143%. For the same molecule, the “% binding” value [37] was 100% and the binding result [38] was “no binding”.

B3: humanized R1 (hR1) (antibody, V domains shown)
VH: QVQLQESGGGVVQPGRSLRLSCSASGFTFSDYYMYWVRQAPGKGLEWVAYITNYGGSTYYPDTVKGRFTISRDNAKNTLFLQMDSLRPEDTGVYFCARQSNYDYDGWFAYWGQGTPVTVSS
VL: DIQLTQSPSSLSASVGDRVTITCKASQEVGTAVAWYQQKPGKAPKLLIYWASTRHTGVPSRFSGSGSGTDFTFTISSLQPEDIATYFCQQYSNYPLTFGQGTKVEIKR
notes: also called hR1 IgG; production clone 711.3C11
With B3 the “% binding” value [23] was 100%, the “% binding” value [24] was 0% and the “% binding” value [25] was 100%. The “% binding” value [28] was 121%, the “% binding” value [29] was 131% and the “% binding” value [30] was 71%. For the same molecule, the “% binding” value [31] was 100%, the “% binding” value [32] was 100% and the “% binding” value [33] was 0%. The “% binding” value [34] was 100%, the “% binding” value [35] was 0% and the “% binding” value [36] was 136%. For the same molecule, the “% binding” value [37] was 100%.
